B1: FRS3 (protein, UniProt O43559 2-492, looked up)
Fibroblast growth factor …: GSCCSCLNRDSVPDNHPTKFKVTNVDDEGVELGSGVMELTQSELVLHLHRREAVRWPYLCLRRYGYDSNLFSFESGRRCQTGQGIFAFKCSRAEEIFNLLQDLMQCNSINVMEEPVIITRNSHPAELDLPRAPQPPNALGYTVSSFSNGCPGEGPRFSAPRRLSTSSLRHPSLGEESTHALIAPDEQSHTYVNTPASEDDHRRGRHCLQPLPEGQAPFLPQARGPDQRDPQVFLQPGQVKFVLGPTPARRHMVKCQGLCPSLHDPPHHNNNNEAPSECPAQPKCTYENVTGGLWRGAGWRLSPEEPGWNGLAHRRAALLHYENLPPLPPVWESQAQQLGGEAGDDGDSRDGLTPSSNGFPDGEEDETPLQKPTSTRAAIRSHGSFPVPLTRRRGSPRVFNFDFRRPGPEPPRQLNYIQVELKGWGGDRPKGPQNPSSPQAPMPTTHPARSSDSYAVIDLKKTVAMSNLQRALPRDDGTARKTRHNSTDLPL
B2: EIF4ENIF1 (protein, UniProt Q9NRA8 1-985, looked up)
Eukaryotic translation …: MDRRSMGETESGDAFLDLKKPPASKCPHRYTKEELLDIKELPHSKQRPSCLSEKYDSDGVWDPEKWHASLYPASGRSSPVESLKKELDTDRPSLVRRIVDPRERVKEDDLDVVLSPQRRSFGGGCHVTAAVSSRRSGSPLEKDSDGLRLLGGRRIGSGRIISARTFEKDHRLSDKDLRDLRDRDRERDFKDKRFRREFGDSKRVFGERRRNDSYTEEEPEWFSAGPTSQSETIELTGFDDKILEEDHKGRKRTRRRTASVKEGIVECNGGVAEEDEVEVILAQEPAADQEVPRDAVLPEQSPGDFDFNEFFNLDKVPCLASMIEDVLGEGSVSASRFSRWFSNPSRSGSRSSSLGSTPHEELERLAGLEQAILSPGQNSGNYFAPIPLEDHAENKVDILEMLQKAKVDLKPLLSSLSANKEKLKESSHSGVVLSVEEVEAGLKGLKVDQQVKNSTPFMAEHLEETLSAVTNNRQLKKDGDMTAFNKLVSTMKASGTLPSQPKVSRNLESHLMSPAEIPGQPVPKNILQELLGQPVQRPASSNLLSGLMGSLEPTTSLLGQRAPSPPLSQVFQTRAASADYLRPRIPSPIGFTPGPQQLLGDPFQGMRKPMSPITAQMSQLELQQAALEGLALPHDLAVQAANFYQPGFGKPQVDRTRDGFRNRQQRVTKSPAPVHRGNSSSPAPAASITSMLSPSFTPTSVIRKMYESKEKSKEEPASGKAALGDSKEDTQKASEENLLSSSSVPSADRDSSPTTNSKLSALQRSSCSTPLSQANRYTKEQDYRPKATGRKTPTLASPVPTTPFLRPVHQVPLVPHVPMVRPAHQLHPGLVQRMLAQGVHPQHLPSLLQTGVLPPGMDLSHLQGISGPILGQPFYPLPAASHPLLNPRPGTPLHLAMVQQQLQRSVLHPPGSGSHAAAVSVQTTPQNVPSRSGLPHMHSQLEHRPSQRSSSPVGLAKWFGSDVLQQPLPSMPAKVISVDELEYRQ
B3: EFEMP1 (protein, UniProt Q12805 18-493, looked up)
EGF-containing fibulin-like …: QDTEETITYTQCTDGYEWDPVRQQCKDIDECDIVPDACKGGMKCVNHYGGYLCLPKTAQIIVNNEQPQQETQPAEGTSGATTGVVAASSMATSGVLPGGGFVASAAAVAGPEMQTGRNNFVIRRNPADPQRIPSNPSHRIQCAAGYEQSEHNVCQDIDECTAGTHNCRADQVCINLRGSFACQCPPGYQKRGEQCVDIDECTIPPYCHQRCVNTPGSFYCQCSPGFQLAANNYTCVDINECDASNQCAQQCYNILGSFICQCNQGYELSSDRLNCEDIDECRTSSYLCQYQCVNEPGKFSCMCPQGYQVVRSRTCQDINECETTNECREDEMCWNYHGGFRCYPRNPCQDPYILTPENRCVCPVSNAMCRELPQSIVYKYMSIRSDRSVPSDIFQIQATTIYANTINTFRIKSGNENGEFYLRQTSPVSAMLVLVKSLSGPREHIVDLEMLTVSSIGTFRTSSVLRLTIIVGPFSF
B4: RAI14 (protein, UniProt Q9P0K7 1-980, looked up)
Ankycorbin: MKSLKAKFRKSDTNEWNKNDDRLLQAVENGDAEKVASLLGKKGASATKHDSEGKTAFHLAAAKGHVECLRVMITHGVDVTAQDTTGHSALHLAAKNSHHECIRKLLQSKCPAESVDSSGKTALHYAAAQGCLQAVQILCEHKSPINLKDLDGNIPLLLAVQNGHSEICHFLLDHGADVNSRNKSGRTALMLACEIGSSNAVEALIKKGADLNLVDSLGYNALHYSKLSENAGIQSLLLSKISQDADLKTPTKPKQHDQVSKISSERSGTPKKRKAPPPPISPTQLSDVSSPRSITSTPLSGKESVFFAEPPFKAEISSIRENKDRLSDSTTGADSLLDISSEADQQDLLSLLQAKVASLTLHNKELQDKLQAKSPKEAEADLSFDSYHSTQTDLGPSLGKPGETSPPDSKSSPSVLIHSLGKSTTDNDVRIQQLQEILQDLQKRLESSEAERKQLQVELQSRRAELVCLNNTEISENSSDLSQKLKETQSKYEEAMKEVLSVQKQMKLGLVSPESMDNYSHFHELRVTEEEINVLKQDLQNALEESERNKEKVRELEEKLVEREKGTVIKPPVEEYEEMKSSYCSVIENMNKEKAFLFEKYQEAQEEIMKLKDTLKSQMTQEASDEAEDMKEAMNRMIDELNKQVSELSQLYKEAQAELEDYRKRKSLEDVTAEYIHKAEHEKLMQLTNVSRAKAEDALSEMKSQYSKVLNELTQLKQLVDAQKENSVSITEHLQVITTLRTAAKEMEEKISNLKEHLASKEVEVAKLEKQLLEEKAAMTDAMVPRSSYEKLQSSLESEVSVLASKLKESVKEKEKVHSEVVQIRSEVSQVKREKENIQTLLKSKEQEVNELLQKFQQAQEELAEMKRYAESSSKLEEDKDKKINEMSKEVTKLKEALNSLSQLSYSTSSSKRQSQQLEALQQQVKQLQNQLAECKKQHQEVISVYRMHLLYAVQGQMDEDVQKVLKQILTMCKNQSQKK
B5: TMF1 (protein, UniProt P82094 1-1093, looked up)
TATA element modulatory factor: MSWFNASQLSSFAKQALSQAQKSIDRVLDIQEEEPSIWAETIPYGEPGISSPVSGGWDTSTWGLKSNTEPQSPPIASPKAITKPVRRTVVDESENFFSAFLSPTDVQTIQKSPVVSKPPAKSQRPEEEVKSSLHESLHIGQSRTPETTESQVKDSSLCVSGETLAAGTSSPKTEGKHEETVNKESDMKVPTVSLKVSESVIDVKTTMESISNTSTQSLTAETKDIALEPKEQKHEDRQSNTPSPPVSTFSSGTSTTSDIEVLDHESVISESSASSRQETTDSKSSLHLMQTSFQLLSASACPEYNRLDDFQKLTESCCSSDAFERIDSFSVQSLDSRSVSEINSDDELSGKGYALVPIIVNSSTPKSKTVESAEGKSEEVNETLVIPTEEAEMEESGRSATPVNCEQPDILVSSTPINEGQTVLDKVAEQCEPAESQPEALSEKEDVCKTVEFLNEKLEKREAQLLSLSKEKALLEEAFDNLKDEMFRVKEESSSISSLKDEFTQRIAEAEKKVQLACKERDAAKKEIKNIKEELATRLNSSETADLLKEKDEQIRGLMEEGEKLSKQQLHNSNIIKKLRAKDKENENMVAKLNKKVKELEEELQHLKQVLDGKEEVEKQHRENIKKLNSMVERQEKDLGRLQVDMDELEEKNRSIQAALDSAYKELTDLHKANAAKDSEAQEAALSREMKAKEELSAALEKAQEEARQQQETLAIQVGDLRLALQRTEQAAARKEDYLRHEIGELQQRLQEAENRNQELSQSVSSTTRPLLRQIENLQATLGSQTSSWEKLEKNLSDRLGESQTLLAAAVERERAATEELLANKIQMSSMESQNSLLRQENSRFQAQLESEKNRLCKLEDENNRYQVELENLKDEYVRTLEETRKEKTLLNSQLEMERMKVEQERKKAIFTQETIKEKERKPFSVSSTPTMSRSSSISGVDMAGLQTSFLSQDESHDHSFGPMPISANGSNLYDAVRMGAGSSIIENLQSQLKLREGEITHLQLEIGNLEKTRSIMAEELVKLTNQNDELEEKVKEIPKLRTQLRDLDQRYNTILQMYGEKAEEAEELRLDLEDVKNMYKTQIDELLRQSLS
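Throughout, for Y2H matrices: yeast two-hybrid pairwise tests of interactions first found in Y2H screens of HCV bait proteins against human cDNA libraries.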

What follows are molecules tested against T1, HCV ORFs (Gal4-DB fusions) (Hepatitis C virus genotype 1b, UniProt Q9WMX2) (assay: not given). Details: HCV protein NS3 as bait; human protein as prey.
T1 construct: expressed in transfected cells; host or cells: Saccharomyces cerevisiae MAV203 (IMAP1) / AH109 (IMAP2)
Format: binding, HCV genotype 1b, isolate con1
In the case of B1, the “IMAP Y2H IMAP1 (number of IST)” value is reported as 2 and the “IMAP Y2H IMAP2 (number of IST)” value is reported as 1.
B2 was tested, and the “IMAP Y2H IMAP1 (number of IST)” value was 2 and the “IMAP Y2H IMAP2 (number of IST)” value was 3.
B3 was tested, and the “IMAP Y2H IMAP1 (number of IST)” value was 10.
With B4 the “IMAP Y2H IMAP1 (number of IST)” value was 1 and the “IMAP Y2H IMAP2 (number of IST)” value was 2.

Same assay, conditions: HCV protein NS5A as bait; human protein as prey
In the case of B3, the “IMAP Y2H IMAP2 (number of IST)” value is reported as 2.
With B5 the “IMAP Y2H IMAP2 (number of IST)” value was 2.

What follows are molecules tested on HCV ORFs (Gal4-DB fusions) (assay: not given). Details: human protein listed by gene symbol; the value names the HCV protein it interacts with.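 Note: yeast two-hybrid screens using HCV genotype 1b proteins fused to Gal4-DB as baits against prey cDNA libraries from human spleen and foetal brain, IMAP1 via transformation and IMAP2 via mating.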
Format: binding, HCV genotype 1b, isolate con1
For B1, the “Interaction with viral protein” value was “NS3”.
In the case of B2, the “Interaction with viral protein” value is reported as “NS3”.
In the case of B3, the “Interaction with viral protein” value is reported as “NS3 and NS5A”.
For B5, the “Interaction with viral protein” value was “NS5A”.
In the case of B4, the “Interaction with viral protein” value is reported as “NS3”.

Each molecule was assayed against T2, GST-tagged viral proteins (Hepatitis C virus genotype 1b, UniProt Q9WMX2) (assay: Validation by co-affinity purification (CoAP)). Details: interaction with HCV protein NS5A.
T2 construct: expressed in transfected cells; host or cells: HEK-293T
Format: binding, HCV genotype 1b, isolate con1
Parameters: key: +: IMAP validation; −: not validated; NA: non assayable due to default of protein expression or to cellular protein directly interacting with GST
Text: C. Validation of Y2H interactions by co-affinity purification assay. Nine co-AP positive assays are shown, representing: NS5A-SORBS2 (1), NS3-CALCOCO2 (2), NS5A-BIN1 (3), NS5A-MOBK1B (4), NS5A-EFEMP1 (5), NS3-PSMB9 and NS5A-PSMB9 (6), NS5A-PPPIRI3L (7), NS3-RASAL2 (8). After pull-down with GST tagged viral baits (+) or with negative control GST alone (−), cellular preys are identified with anti-Flag antibody. Anti-GST antibody identifies either GST alone or GST-tagged viral baits. Expression of cellular preys in cell lysate is controlled by anti-Flag (bottom panel). […]
A random pool of 59 IMAP Y2H interactions was chosen for CoAP assays. Cellular ORFs (interacting domains found in Y2H screens) were cloned by recombinational cloning from a pool of human cDNA library or the MGC cDNA plasmids using KOD polymerase (Toyobo) into pDONR207 (Invitrogen). After validation by sequencing, these ORFs were transferred to pCi-neo-3xFLAG gateway-converted, and HCV ORFs were transferred into pDEST27 (GST fusion in N-term). HEK-293T cells were then co-transfected (JetPei, Polyplus) by each pair of plasmid encoding interacting proteins. Controls are GST alone against 3xFLAG-tagged preys. Two days after transfection, cells were harvested and lysed (0.5% NP-40, 20 mM Tris-HCl (pH 8.0), 180 mM NaCl, 1 mM EDTA, and complete protease inhibitor cocktail). Cell lysates were cleared by centrifugation for 20 min at 13,000 rpm at 4° C. and soluble protein complexes were purified using Glutathione Sepharose 4B beads (GE Healthcare). Beads were then washed extensively four times with lysis buffer and proteins were separated on SDS-PAGE and transferred to nitrocellulose membrane. GST-tagged viral proteins and 3xFLAG-tagged cellular proteins were detected using standard immunoblotting techniques using anti-GST (Covance) and anti-FLAG M2 (Sigma) monoclonal antibodies (21).
In the case of B3, the CoAP is reported as “+”.
B5 was tested, and the CoAP was “−”.

Same assay, conditions: validation of interaction with HCV protein NS3
B1 was tested, and the CoAP was “+”.
For B2, the CoAP was “+”.
B4 was tested, and the CoAP was “−”.

The molecules below were run against T3, HCV proteins (Hepatitis C virus genotype 1b, UniProt Q9WMX2) (assay: Validation by Y2H pairwise matrices). Details: validation of interaction with HCV protein NS3.
T3 construct: expressed in transfected cells
T3 sequence (Q9WMX2 1027-1657): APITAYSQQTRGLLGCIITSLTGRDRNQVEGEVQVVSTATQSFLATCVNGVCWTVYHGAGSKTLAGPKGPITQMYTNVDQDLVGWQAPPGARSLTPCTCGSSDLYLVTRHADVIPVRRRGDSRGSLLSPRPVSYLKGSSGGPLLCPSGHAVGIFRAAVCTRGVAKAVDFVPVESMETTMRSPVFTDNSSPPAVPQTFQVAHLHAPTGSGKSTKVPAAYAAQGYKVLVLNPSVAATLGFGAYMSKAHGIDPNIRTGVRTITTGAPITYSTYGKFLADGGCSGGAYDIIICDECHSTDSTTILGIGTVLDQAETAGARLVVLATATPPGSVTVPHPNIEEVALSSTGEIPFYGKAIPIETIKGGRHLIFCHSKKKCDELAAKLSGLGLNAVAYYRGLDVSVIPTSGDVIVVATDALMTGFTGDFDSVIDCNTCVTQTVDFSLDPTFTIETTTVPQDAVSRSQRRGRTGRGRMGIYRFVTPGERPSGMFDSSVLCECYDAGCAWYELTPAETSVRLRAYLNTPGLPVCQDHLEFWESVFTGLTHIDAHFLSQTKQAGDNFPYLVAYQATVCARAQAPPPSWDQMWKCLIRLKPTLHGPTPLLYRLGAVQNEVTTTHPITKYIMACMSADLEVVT
Format: binding
With B1 the Y2H matrices was “+”.
With B2 the Y2H matrices was “+”.
For B3, the Y2H matrices was “+”.
With B4 the Y2H matrices was “+”.
